Data published in article PMC6238537 (Life Science Alliance, 2018).

Target: T1, recombinant human laminin-511 (human, UniProt O15230 36-3695; P07942 22-1786; P11047 34-1609)
T1 construct: the FLAG tag stands just after the N-terminal signal peptide cleavage site; αβγ heterotrimer; also called LM511; not shown: FLAG, N-terminal, kept; copies: + +
Assay: ELISA; solid-phase binding assay: 96-well plates coated with laminins at 5 nM overnight at 4°C, blocked with 3% BSA; 30 nM integrins for 3 h at room temperature with 1 mM Mn2+; bound integrins detected by biotinylated anti-Velcro pAb and HRP-streptavidin (absorbance at 490 nm)
Details: both partners purified

binding result | Binder
binds | recombinant integrin αvβ3 (receptor, human, integrin αv subunit, human, extracellular domain; integrin β3 subunit, human, extracellular domain; truncated soluble heterodimer; vectors from Dr. Junichi Takagi (Takagi et al, 2001, 2002a, b); Purification on ANTI-FLAG gel implies a FLAG tag) chain 1: FNLDVDSPAEYSGPEGSYFGFAVDFFVPSASSRMFLLVGAPKANTTQPGIVEGGQVLKCDWSSTRRCQPIEFDATGNRDYAKDDPLEFKSHQWFGASVRSKQDKILACAPLYHWRTEMKQEREPVGTCFLQDGTKTVEYAPCRSQDIDADGQGFCQGGFSIDFTKADRVLLGGPGSFYWQGQLISDQVAEIVSKYDPNVYSIKYNNQLATRTAQAIFDDSYLGYSVAVGDFNGDGIDDFVSGVPRAARTLGMVYIYDGKNMSSLYNFTGEQMAAYFGFSVAATDINGDDYADVFIGAPLFMDRGSDGKLQEVGQVSVSLQRASGDFQTTKLNGFEVFARFGSAIAPLGDLDQDGFNDIAIAAPYGGEDKKGIVYIFNGRSTGLNAVPSQILEGQWAARSMPPSFGYSMKGATDIDKNGYPDLIVGAFGVDRAILYRARPVITVNAGLEVYPSILNQDNKTCSLPGTALKVSCFNVRFCLKADGKGVLPRKLNFQVELLLDKLKQKGAIRRALFLYSRSPSHSKNMTISRGGLMQCEELIAYLRDESEFRDKLTPITIFMEYRLDYRTAADTTGLQPILNQFTPANISRQAHILLDCGEDNVCKPKLEVSVDSDQKKIYIGDDNPLTLIVKAQNQGEGAYEAELIVSIPLQADFIGVVRNNEALARLSCAFKTENQTRQVVCDLGNPMKAGTQLLAGLRFSVHQQSEMDTSVKFDLQIQSSNLFDKVSPVVSHKVDLAVLAAVEIRGVSSPDHVFLPIPNWEHKENPETEEDVGPVVQHIYELRNNGPSSFSKAMLHLQWPYKYNNNTLLYILHYDIDGPMNCTSDMEINPLRIKISSLQTTEKNDTVAGQGERDHLITKRDLALSEGDIHTLGCGVAQCLKIVCQVGRLDRGKSAILYVKSLLWTETFMNKENQNHSYSLKSSASFNVIEFPYKNLPIEDITNSTLVTTNVTWGIQPAPMPV chain 2: GPNICTTRGVSSCQQCLAVSPMCAWCSDEALPLGSPRCDLKENLLKDNCAPESIEFPVSEARVLEDRPLSDKGSGDSSQVTQVSPQRIALRLRPDDSKNFSIQVRQVEDYPVDIYYLMDLSYSMKDDLWSIQNLGTKLATQMRKLTSNLRIGFGAFVDKPVSPYMYISPPEALENPCYDMKTTCLPMFGYKHVLTLTDQVTRFNEEVKKQSVSRNRDAPEGGFDAIMQATVCDEKIGWRNDASHLLVFTTDAKTHIALDGRLAGIVQPNDGQCHVGSDNHYSASTTMDYPSLGLMTEKLSQKNINLIFAVTENVVNLYQNYSELIPGTTVGVLSMDSSNVLQLIVDAYGKIRSKVELEVRDLPEELSLSFNATCLNNEVIPGLKSCMGLKIGDTVSFSIEAKVRGCPQEKEKSFTIKPVGFKDSLIVQVTFDCDCACQAQAEPNSHRCNNGNGTFECGVCRCGPGWLGSQCECSEEDYRPSQQDECSPREGQPVCSQRGECLCGQCVCHSSDFGKITGKYCECDDFSCVRYKGEMCSGHGQCSCGDCLCDSDWTGYYCNCTTRTDTCMSSNGLLCSGRGKCECGSCVCIQPGSYGDTCEKCPTCPDACTFKKECVECKKFDRGALHDENTCNRYCRDEIESVKELKDTGKDAVNCTYKNEDDCVVRFQYYEDSSGKSILYVVEEPECPKGPD
binds | recombinant integrin αvβ5 (receptor, human, integrin αv subunit, human, extracellular domain; integrin β5 subunit, human, extracellular domain; cDNA amplified from RNA of T98G human glioblastoma cells; truncated soluble heterodimer; Purification on ANTI-FLAG gel implies a FLAG tag) chain 1: FNLDVDSPAEYSGPEGSYFGFAVDFFVPSASSRMFLLVGAPKANTTQPGIVEGGQVLKCDWSSTRRCQPIEFDATGNRDYAKDDPLEFKSHQWFGASVRSKQDKILACAPLYHWRTEMKQEREPVGTCFLQDGTKTVEYAPCRSQDIDADGQGFCQGGFSIDFTKADRVLLGGPGSFYWQGQLISDQVAEIVSKYDPNVYSIKYNNQLATRTAQAIFDDSYLGYSVAVGDFNGDGIDDFVSGVPRAARTLGMVYIYDGKNMSSLYNFTGEQMAAYFGFSVAATDINGDDYADVFIGAPLFMDRGSDGKLQEVGQVSVSLQRASGDFQTTKLNGFEVFARFGSAIAPLGDLDQDGFNDIAIAAPYGGEDKKGIVYIFNGRSTGLNAVPSQILEGQWAARSMPPSFGYSMKGATDIDKNGYPDLIVGAFGVDRAILYRARPVITVNAGLEVYPSILNQDNKTCSLPGTALKVSCFNVRFCLKADGKGVLPRKLNFQVELLLDKLKQKGAIRRALFLYSRSPSHSKNMTISRGGLMQCEELIAYLRDESEFRDKLTPITIFMEYRLDYRTAADTTGLQPILNQFTPANISRQAHILLDCGEDNVCKPKLEVSVDSDQKKIYIGDDNPLTLIVKAQNQGEGAYEAELIVSIPLQADFIGVVRNNEALARLSCAFKTENQTRQVVCDLGNPMKAGTQLLAGLRFSVHQQSEMDTSVKFDLQIQSSNLFDKVSPVVSHKVDLAVLAAVEIRGVSSPDHVFLPIPNWEHKENPETEEDVGPVVQHIYELRNNGPSSFSKAMLHLQWPYKYNNNTLLYILHYDIDGPMNCTSDMEINPLRIKISSLQTTEKNDTVAGQGERDHLITKRDLALSEGDIHTLGCGVAQCLKIVCQVGRLDRGKSAILYVKSLLWTETFMNKENQNHSYSLKSSASFNVIEFPYKNLPIEDITNSTLVTTNVTWGIQPAPMPV chain 2: GLNICTSGSATSCEECLLIHPKCAWCSKEDFGSPRSITSRCDLRANLVKNGCGGEIESPASSFHVLRSLPLSSKGSGSAGWDVIQMTPQEIAVNLRPGDKTTFQLQVRQVEDYPVDLYYLMDLSLSMKDDLDNIRSLGTKLAEEMRKLTSNFRLGFGSFVDKDISPFSYTAPRYQTNPCIGYKLFPNCVPSFGFRHLLPLTDRVDSFNEEVRKQRVSRNRDAPEGGFDAVLQAAVCKEKIGWRKDALHLLVFTTDDVPHIALDGKLGGLVQPHDGQCHLNEANEYTASNQMDYPSLALLGEKLAENNINLIFAVTKNHYMLYKNFTALIPGTTVEILDGDSKNIIQLIINAYNSIRSKVELSVWDQPEDLNLFFTATCQDGVSYPGQRKCEGLKIGDTASFEVSLEARSCPSRHTEHVFALRPVGFRDSLEVGVTYNCTCGCSVGLEPNSARCNGSGTYVCGLCECSPGYLGTRCECQDGENQSVYQNLCREAEGKPLCSGRGDCSCNQCSCFESEFGKIYGPFCECDNFSCARNKGVLCSGHGECHCGECKCHAGYIGDNCNCSTDISTCRGRDGQICSERGHCLCGQCQCTEPGAFGEMCEKCPTCPDACSTKRDCVECLLLHSGKPDNQTCHSLCRDEVITWVDTIVKDDQEAVLCFYKTAKDCVMMFTYVELPSGKSNLTVLREPECGNTPN
